From article PMC8369199
Blank lines part the entries; values can stand above or below the substance they belong to.

Tests used:
[1] = biological target: MMP-9 cleaved TRZ-Fc4 (human); assay: BLI; antibody variant on anti-human Fab-CH1 (Fab2G) sensors; FcγRI 6.25, 12.5, 25, 50 nM, then dissociation in kinetics buffer; 1:1 Langmuir model
trastuzumab (human) = assay: as above
[2] = biological target: human complement C1q (human) (UniProt P02745); assay: BLI
[3] = biological target: FcγRIIIa V158 (high-affinity variant of FcγRIIIa) on engineered ADCC reporter effector cells

Sequence of His-tagged human Fc gamma RI (CD64) (P12314 16-292): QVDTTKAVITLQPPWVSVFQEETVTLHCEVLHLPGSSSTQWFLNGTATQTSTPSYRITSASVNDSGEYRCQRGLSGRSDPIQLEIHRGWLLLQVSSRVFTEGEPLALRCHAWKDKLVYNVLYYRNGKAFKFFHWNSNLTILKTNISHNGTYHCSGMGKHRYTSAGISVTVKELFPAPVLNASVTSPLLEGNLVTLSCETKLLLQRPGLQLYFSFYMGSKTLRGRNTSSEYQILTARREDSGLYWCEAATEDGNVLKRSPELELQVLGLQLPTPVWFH
Sequence of human complement C1q (human) (P02745 23-245, chain 1 of 3): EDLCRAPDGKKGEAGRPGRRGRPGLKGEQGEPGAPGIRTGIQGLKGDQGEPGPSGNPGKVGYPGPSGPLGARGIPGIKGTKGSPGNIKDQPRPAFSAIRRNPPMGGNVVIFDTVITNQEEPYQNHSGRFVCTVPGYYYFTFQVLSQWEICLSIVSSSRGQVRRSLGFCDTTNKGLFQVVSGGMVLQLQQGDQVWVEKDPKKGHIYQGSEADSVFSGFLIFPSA
Sequence of human complement C1q (human) (P02746 28-253, chain 2 of 3, further chain): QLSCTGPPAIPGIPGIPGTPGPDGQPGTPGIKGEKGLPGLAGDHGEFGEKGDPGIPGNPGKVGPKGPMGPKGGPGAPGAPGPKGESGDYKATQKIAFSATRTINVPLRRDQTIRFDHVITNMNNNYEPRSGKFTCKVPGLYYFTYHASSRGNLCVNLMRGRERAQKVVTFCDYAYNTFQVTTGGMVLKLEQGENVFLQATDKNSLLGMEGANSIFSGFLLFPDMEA
Sequence of human complement C1q (human) (P02747 29-245, chain 3 of 3, further chain): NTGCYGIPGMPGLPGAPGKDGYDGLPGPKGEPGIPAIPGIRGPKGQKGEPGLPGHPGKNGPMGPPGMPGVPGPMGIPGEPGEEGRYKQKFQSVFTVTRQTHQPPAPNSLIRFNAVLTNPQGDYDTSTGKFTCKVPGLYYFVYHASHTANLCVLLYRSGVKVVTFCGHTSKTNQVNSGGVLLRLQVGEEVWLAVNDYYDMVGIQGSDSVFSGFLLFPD

Kd [1]: 1.6 nM
Kd (trastuzumab (human)): 1.3 nM
Substance: His-tagged human Fc gamma RI (CD64) (from UniProt P12314 16-292) (receptor)

Kd [2]: 209 nM
Substance: trastuzumab

ADCC reporter assay, fold induction, SK-BR-3 target cells, with MMP-2/MMP-9 inhibitor, antibody 10 fM to 100 nM; highest induction, reached at 1 nM (fold induction) [3]: 57.6
EC50 of ADCC reporter induction, SK-BR-3 target cells [3]: 0.039 nM
Substance: trastuzumab (antibody)
